Measured values: the DeepSol protein solubility set

Assay: soluble on expression in E. coli; label from the status in PepcDB or PDB records

Sequence | soluble on expression in E. coli
MLSFEQSYAPSRNMKLLLVEPSGSYFNDSCCSEPNSPDSGFSSDDSISSDASFAERLTRSKTLPSALRRSRSKQSVKRVRFADSLGLDLENLQYFVKEDLHLQKFNIHFSTPSSSTPPPQLPHFPKQLINQPAPRLVLHNFPYRSEQEYQVKTRDSRVCVAALRASGSSIVGQVNLLNVAFDKVVVVRYTIDGWATQDEIVASYSHRLFDTEDIDAFNFTIAIPVKLSEGKCEFCVQYQVAGAEFWDNNGGDNYIVNVSTKGPSSPFTRCYGASTGLPDAPRGSTRRQQQRRWGRALEESDEETPYVSSAPRRGAHFH | not soluble
MLSFPRPHSLVEGVVSAIRREIVSGRLPAESKMPTEHELADQFSVSRSVVREAISQLKADGVLVIRRGSGSFVSQTPGGTVFRLPGNEDHSAGLAKLFELRSWIEIQVASVAAQRHTDADLKRLSDAMLLMESNAGNFEISSKADCEFHCAIVAACKNEYLTAFHDFLGSQLIQARFMAWENSSKLEIGPSGAIREHREIFDAIAKRNPSEAAHCARMHLKAAALRLNIDLAD | not soluble
MLSIHDPLLIFTDLDGTLLNSHTFEWQPAAPWLTRLHESGVPVILCSSKTAAEMLQLQTTLNLQGLPLIAENGAVIQLDVHWEDHPNYPRLIAGISHNEIRLVLHKLREKEQFKFTTFDDVDDQVISEWTGLNRAQSALTRLHEASVSLIWRDSDERMAQFVARLNDLGLQFVHGARFWHVLDASAGKDQAANWLIEAYRRQWRARPLTLGLGDGPNDAPLLDVMDYAVVVKGLNREGVHLRNDDPQRVYRSQNEGPDGWREGMDYFFSRSLEHHHHHH | soluble
MLSKKRSMSFAKRTLLSVSLSLVSGLSFAKMYELPEDGSRLIGRLENHVVQQGETMANIAKHYDVGMLALMAANKGVDPFLPQEGRVLTIPSQLILPEVPHQGIVINLAELRLYYFPEGEDVVHVFPVGIGRIGRDTPVMTTSISQKRPNPTWTPPASIRAEYRAKGVDLPAVVPAGPDNPLGLFALRLAYGNGEYLIHGTNKDFGIGMRVSAGCIRMDPSDIEWLFDKVRRGEKVNIINQPVKVSLEPDRSVFVEAHEPLTRSNGEKDHLQVPKELGWWLNEFGLTNVKAKAVIAAQNGVPVEITAP | not soluble
MLSNMLDVNLEKMERFAAKVWRKYGKEDPLAQLSFNEYDYLKVIQSAPQAIRLTDLALALEVSKPSASNMLKRLERRGLVKRVQCQSDARSQLFELTEQAELHLASEAKVYQILAEQVAQNLSSEEAMMLDLLLGKALR | not soluble
MLSRMRRKHFLSQTEHTFSRQEVSLWKEKQMICFMMNPSRKHIWASREEINMDHVVITIARQYGSGGRTVGKMLAERLGISFYDKQIIHMASDESGIDVNLFGKIEAGDKIKSSLFGNKSSIYKGDLVLPGNKDFISDENLFNYQAKVVNDLAEKESYVIVGRCVNYVFKDRPNTLRVFIHAPWEFRVEQASQKISGSREDVEKFLLKDDKRKQDYYRKFAGGQWSDATNYDLCLNSGKLGFDKCVDAIETQLKIMLGK | not soluble
MLSSHLSQICFSCRDPLGNLPADLIRKCTDLMDLNFAEGQRLRTLNKNWKLALPSFRKGAYREERPWLLYRERGSGETRFFDPVRERVHRGNDPRLADARFLGSTLGWLVMSESLDLNPRKTHQTFLYNPFISELQQLPELTLDSPYPTGVLRYGVLTGNPSDNNTYACLITDYLHEIGNRRDTYTLLIYYVAKTSGRWEQNWSVASMLVVGIFDTWYIESISPSPDKISIEIWPKRYDFTFQTQEWNVSNFIPVDPIQWDPFHDQSLYHVKHRLQLPENPSTLAIIIGTSTDRTRVRNKIIGDQSDDDDPRASDHIIDGVWVEVRP | soluble
MLSSTCTAAVRGLSTTAQLSKINNVTIIGAGLMGSGIAQVSANAKLNVTVVDSNQSALEKAQQGIANSLKRVAKKKHADDAAAQTALVSSVLDRIKMSTNVSDSVKDADLVIEAIVENIDIKRKLFAEVEVAAKPTTLITTNTSSLRLADIGLNLKDKSRFGGLHFFNPVPMMKLLEVVRHTETSDATFNQLVDYGKTVGKTTVACKDTPGFIVNRLLVPYMFEALRLYERGDASMEDIDVAMKLGAGYPMGPFELSDYVGLDTCKFIMDGWHAQYPEEVAFTPSPLLNSLVDSGKNGRKSGEGFYKYK | not soluble
MLTDTAAEGLSDSEVGREEPATAEEEQREQQPEKFEEPVFSAELDEEQTAPESQTEAVSEDEKAKEPSDSPVYNHHENAAEGAESPFVQEEQMDIRQEEPLFTDHEYSSEALAQAETVAKESEEPSESIINNHYDTLGEAQETKIDVQPDSHTELEKTEHMEQGSKSSTATLENRQEIRADKPREASEEPKKRPGVQEKRTEQSASSQKGPSVPFNVMMLKRDTHKQQKAEERRGSYVFPNVALLDVPPAQVQDDTAWIEEQRQLLDLTLKNFNVRANVVHVTQGPSVTRFEVHPEPGVKVNKITNLSDDIKLSLSAKDIRIEAPIPGKNTIGIEVPNRTSKVVDLRQMIRSSAFRTSKSPLTAALGLDISGNPVVIDLKKMPHGLIAGATGSGKSVCINTILVSLLYKADPSEVKVLLIDPKMVELAPYNKIPHLVSPVITDAKAATAALKWVVEEMERRYELFAHSGVRDIDRFNQLTAEHQMGEKLPYLVVIIDELADLMMVAPNDVEESIARIAQKARACGIHLLVATQRPSVDVITGLIKANIPTRIAFSVSSQVDSRTIIDIAGAEKLLGKGDMLFLENGSGKPVRLQGNFVSDREIDRVVSHVRSQMPPTYLFEQEELVRQGSALKEEDELFYEACEFVVEQNSASTSSLQRRFRIGYNRAARLIDMMEAEGMISEAKGSKPREVLITASDLINE | not soluble
MLTGLLDVPYRKSFALLEELLERREAEEQTLAISTLATQLKMQQNTILQSVALLQTEIEKNGWENLFSLSANAKEITFWFAPYFQLSFLMPYFVKKSFAYQVLTYAFNHNAIDSKHFEKVLEISSSTFTRKIGQLNQWLQKYQIEINLKRTNVLVGKEKDIRIFFMMLFWNNYSEGDWPLHTITKKEVHSLFRRLKHSVSFNTTQDFTKDLIFSAVILARWKEGFFIKETFVEEEAIVNPFVNLSEFELFFKEEALHQVPTKFIQKEGLFAFFLLTISVSYATQDVLEIPAARMHMVQLLGSPIKEIIYQLTSFYQIKLTFHEYLYLYTSIQNLSVFFKTFVTIANPFVQESFLKEALQKIQVSTKM | not soluble
MLTLLGKIAHFREPLSRQLSLSDTNVTPQISRCAKLNLSVKQKKLLRQSFNAMNSGGTFLKLMEKIFRRLETKCPDMRSIFLTTAFVNSLSRERQTPPLVKTEYDHCKCMVGIFERLIENLENINEQLTMIRHYGEKHAQMAESGFTGAMIEQFGEISVFVIGSQDVVKFNHETVKAWRLLLACVTDEMKVGFDRMSRINGRRNSCNPPSTVPSGN | not soluble
MLTRLNRSFVQAARSMYIQVQETPNPLSLKFLPGQQLLPDASKTYDFSSAATAKQSPLAIKLLRVDGVKRVFFGEDFVTVTKSDETVDWALLRPEIFSTIADHIQTGKPVINEAATVSDQVEEDDEVVMMIKEILETRIRPMVQEDGGDITYVGFDDGVVKLKMQGSCTGCPSSGVTLKNGIENMLTFYVPEVKEVIEVKDESDDLVEQELKKFEQSKGIKD | not soluble
MLTVGILGGGQLGWMTILEGRKLGFKFHVLEDKENAPACRVADRCFRTGQISEFVDSCDIITYEFEHIKDEVLEKCESKLIPNPQALYVKKSRIREKLFLKKHGFPVPEFLVIKRDEIIDALKSFKLPVVIKAEKLGYDGKGQYRIKKLEDANQVVKNHDKEESFIIEEFVKFEAEISCIGVRDREGKTYFYPQPFNKHEEGILIYNYVPYAKLKEAEEITKRLMELLDIVGVFTVEFFLLKDGRVLINEFAPRVHNTGHWTLDGAYTSQFENLLRAITEMPLGSTELKLPSGMVNILGKSYEEIPLKEILSVEGAKLYWYGKEKKPRRKVGHVNVVGRSKEEVVEKVERVFTLLKGSREKLPAP | soluble
MLTYIILVLHLQNHVWEDVTVHNSSLPPLAIKHPECLGLLHQLERSTDVWIQHYCILKDGCLYFYASIRSTQASGGLYLQGYSVSEQTHGFEQPVIELKPSSEEFKTFYFCAENKTENQRWIAALKTSIKKWLPLDQAIQEFMSRPLEETRM | not soluble
MLVKSMNFDPLKEAEKIKDEIISWRRDFHMHPELGFEEERTSKIVEEHLREWGYKIKRAGTGIIADIGDGGKTIALRADMDALPIQEENDVPYKSRVPGKMHACGHDAHTAMLLGAAKIIAEHSSELENKVRLIFQPAEEGGNGALKMIEAGALEGVDAIFGIHVWAELPSGIVGIREGPFLAGVGKFIAKIIGKGGHGAAPHFSIDPIPAAADAVLALQRIVAREVDPLESAVVTVGKIQGGTAFNVIPQYVELEGTFRFFTQELGKFLERRIREIIENTAKAHNCKAEVNTEILGPPTINDEKMVKFVAETAKALGLKVGEVRKTLGGEDFAYYLEKVPGAFIALGIRNEEKGIIYPHHHPKFDVDEDVLYLGTALEVALAFNFKG | soluble
MLVRLGYVAMSVHLKNASPSQTMTYAQFQKLDDRDAAIRKLERIANSNLENCLRLLKHNKGHDISFFRLSSKLIPLANHEELLEWNYIRPLKENLKKLGEYAVHMNMRIDFHPDHFVVLNSPEESVFKQSVKTLQMHKKLLKGMGIEHKQRCVLHVGGGYKDKELALERFIENWSNVPRGIQEMIILENDDTTFTLEETLYLGEKLDIPVVFDLHHHMMNNEQEDWYEDWARVVHTWETSLLPIKMHISSPREGKDPRAHADYINVDAFLSFLRRIKGSVPQIDCMIEAKMKDESLFQLMRDLSEQVDVEIIDGASFYIK | not soluble
MLVSKSNGFNASAVLGSGSYNENKSSKHMELLAHSILKLICKEAASETYRGALETLQKMMSECIYQEGNAFVIMGAGEQLKRIKYEVGENNLKVFNVHFNNNHELVSSGEPDVICLSKQVWENLLIKLKLENNENVFSETKKLSNKNNADQFFECAKRNE | not soluble
MLWKEYEEASSLTARVVKHLDKFDMIVQADKYEKTHEIDLQQFFTSTVGVLKMEPFATWDRELRENRMKRINKAE | not soluble
MLWLALGPFPAMENQVLVIRIKIPNSGAVDWTVHSGPQLLFRDVLDVIGQVLPEATTTAFEYEDEDGDRITVRSDEEMKAMLSYYYSTVMEQQVNGQLIEPLQIFPRACKPPGERNIHGLKVNTRAGPSQHSSPAVSDSLPSNSLKKSSAELKKILANGQMNEQDIRYRDTLGHGNGGTVYKAYHVPSGKILAVKVILLDITLELQKQIMSELEILYKCDSSYIIGFYGAFFVENRISICTEFMDGGSLDVYRKMPEHVLGRIAVAVVKGLTYLWSLKILHRDVKPSNMLVNTRGQVKLCDFGVSTQLVNSIAKTYVGTNAYMAPERISGEQYGIHSDVWSLGISFMELALGRFPYPQIQKNQGSLMPLQLLQCIVDEDSPVLPVGEFSEPFVHFITQCMRKQPKERPAPEELMGHPFIVQFNDGNAAVVSMWVCRALEERRSQQGPP | soluble
MLYDVVGVRFKKAGKVYYFDPNQFDISENEFVIVETVRGIEYGKVVITKKQVDENDVVLPLKKVIRIANENDRTIVEENKHAAKEAYQVCQQKVVEHNLDMKLVDVEYTFDRNKIIFYFTADGRIDFRELVKDLAAIFRTRIELRQIGVRDEAKMLGGIGPCGRMLCCSTFLGDFEPVSIKMAKDQNLSLNPAKISGLCGRLMCCLKYENDEYEAAKEQLPDLDQRIQTPHGTGRVIGLNILERLIQVELVDKERIVEYTLDELVNKGLEHHHHHH | soluble
